The target of this assay is GST–tubulin tails (ending in either Tyr or Glu). Description: pull-down.

B1: E442Q Spastin (enzyme)
chain: ESGAVPKRKDPLTHTSNSLPRSKTVMKTGSAGLSGHHRAPSYSGLSMVSGVKQGSGPAPTTHKGTPKTNRTNKPSTPTTATRKKKDLKNFRNVDSNLANLIMNEIVDNGTAVKFDDIAGQDLAKQALQEIVILPSLRPELFTGLRAPARGLLLFGPPGNGKTMLAKAVAAESNATFFNISAASLTSKYVGEGEKLVRALFAVARELQPSIIFIDQVDSLLCERREGEHDASRRLKTEFLIEFDGVQSAGDDRVLVMGATNRPQELDEAVLRRFIKRVYVSLPNEETRLLLLKNLLCKQGSPLTQKELAQLARMTDGYSGSDLTALAKDAALGPIRELKPEQVKNMSASEMRNIRLSDFTESLKKIKRSVSPQTLEAYIRWNKDFGDTTV
In turn, B1 came in with a percent of the Spastin bound of 25 to 33%.

Source of the values: publication PMC2064084.
